Patent US20150258192A1, “COMPOSITIONS AND METHODS FOR PREVENTING OR TREATING CHRONIC LUNG ALLOGRAFT DYSFUNCTION (CLAD) AND IDIOPATHIC PULMONARY FIBROSIS (IPF)” (priority 2014, published 2015)
No end group written: not given here.

Columns and labels:
Assay in all cases: Kinase Profiling Assay
Type in all cases: biochemical
Details in all cases: peptide 100 μM
Yes(h) = Yes(h) (Homo sapiens, UniProt P07947)
In short: (§1)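 Activity remaining relative to an uninhibited control was determined by scintillation counting of labeled substrate bound to a negatively charged filter. Radiolabeled phosphate came from ATP; the substrate carried positive charge. Duplicate measurements, within a 266-kinase human panel.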

PAK2(h) = target: T1, PAK2(h) (Homo sapiens, UniProt Q13177)
T1 construct: purchased Millipore
In short: as §1

Bmx(h) = target: T2, Bmx(h) (Homo sapiens, UniProt P51813)
T2 sequence (P51813 1-675): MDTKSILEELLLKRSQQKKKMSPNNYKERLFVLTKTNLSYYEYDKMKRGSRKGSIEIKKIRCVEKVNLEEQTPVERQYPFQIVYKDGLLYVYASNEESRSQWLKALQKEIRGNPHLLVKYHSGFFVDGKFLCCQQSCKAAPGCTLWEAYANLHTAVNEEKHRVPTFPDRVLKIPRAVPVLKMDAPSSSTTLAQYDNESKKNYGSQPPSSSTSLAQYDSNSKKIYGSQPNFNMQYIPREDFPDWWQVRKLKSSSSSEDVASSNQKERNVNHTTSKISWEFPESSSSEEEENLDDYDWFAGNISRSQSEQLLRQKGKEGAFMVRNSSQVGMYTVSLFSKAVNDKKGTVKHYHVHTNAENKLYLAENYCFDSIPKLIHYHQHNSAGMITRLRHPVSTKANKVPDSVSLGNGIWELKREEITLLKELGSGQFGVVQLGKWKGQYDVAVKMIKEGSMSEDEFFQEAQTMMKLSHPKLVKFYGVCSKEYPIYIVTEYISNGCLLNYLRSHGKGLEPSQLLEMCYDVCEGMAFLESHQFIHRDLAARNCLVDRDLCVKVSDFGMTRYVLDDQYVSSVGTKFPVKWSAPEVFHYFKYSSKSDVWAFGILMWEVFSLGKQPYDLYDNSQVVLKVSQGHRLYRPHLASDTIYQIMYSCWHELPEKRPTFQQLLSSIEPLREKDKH
In short: as §1

DCAMKL2(h) = target: T3, DCAMKL2(h) (Homo sapiens, UniProt Q8N568)
T3 sequence (Q8N568 1-766): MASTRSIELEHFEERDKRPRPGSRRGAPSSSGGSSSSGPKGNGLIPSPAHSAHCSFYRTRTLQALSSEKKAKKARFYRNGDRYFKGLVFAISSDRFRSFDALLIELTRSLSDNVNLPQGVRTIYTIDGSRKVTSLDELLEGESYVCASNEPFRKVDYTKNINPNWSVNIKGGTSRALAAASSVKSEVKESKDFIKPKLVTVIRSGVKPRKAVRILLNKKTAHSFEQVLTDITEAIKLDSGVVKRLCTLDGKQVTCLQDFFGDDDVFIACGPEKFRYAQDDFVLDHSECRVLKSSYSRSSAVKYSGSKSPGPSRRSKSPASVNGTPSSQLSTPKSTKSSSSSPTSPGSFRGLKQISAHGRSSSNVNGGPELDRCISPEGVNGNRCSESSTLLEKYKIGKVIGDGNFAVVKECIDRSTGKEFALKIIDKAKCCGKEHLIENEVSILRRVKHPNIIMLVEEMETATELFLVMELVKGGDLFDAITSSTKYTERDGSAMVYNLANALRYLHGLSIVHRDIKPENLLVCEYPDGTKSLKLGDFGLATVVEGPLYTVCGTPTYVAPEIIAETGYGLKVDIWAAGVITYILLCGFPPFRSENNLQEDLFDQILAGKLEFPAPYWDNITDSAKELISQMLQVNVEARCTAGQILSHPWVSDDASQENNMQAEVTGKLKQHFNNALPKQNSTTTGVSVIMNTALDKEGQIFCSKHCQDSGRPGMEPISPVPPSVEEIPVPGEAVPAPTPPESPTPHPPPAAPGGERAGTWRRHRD
In short: as §1

Rse(h) = target: T4, Rse(h) (Homo sapiens, UniProt Q06418)
T4 sequence (Q06418 41-890): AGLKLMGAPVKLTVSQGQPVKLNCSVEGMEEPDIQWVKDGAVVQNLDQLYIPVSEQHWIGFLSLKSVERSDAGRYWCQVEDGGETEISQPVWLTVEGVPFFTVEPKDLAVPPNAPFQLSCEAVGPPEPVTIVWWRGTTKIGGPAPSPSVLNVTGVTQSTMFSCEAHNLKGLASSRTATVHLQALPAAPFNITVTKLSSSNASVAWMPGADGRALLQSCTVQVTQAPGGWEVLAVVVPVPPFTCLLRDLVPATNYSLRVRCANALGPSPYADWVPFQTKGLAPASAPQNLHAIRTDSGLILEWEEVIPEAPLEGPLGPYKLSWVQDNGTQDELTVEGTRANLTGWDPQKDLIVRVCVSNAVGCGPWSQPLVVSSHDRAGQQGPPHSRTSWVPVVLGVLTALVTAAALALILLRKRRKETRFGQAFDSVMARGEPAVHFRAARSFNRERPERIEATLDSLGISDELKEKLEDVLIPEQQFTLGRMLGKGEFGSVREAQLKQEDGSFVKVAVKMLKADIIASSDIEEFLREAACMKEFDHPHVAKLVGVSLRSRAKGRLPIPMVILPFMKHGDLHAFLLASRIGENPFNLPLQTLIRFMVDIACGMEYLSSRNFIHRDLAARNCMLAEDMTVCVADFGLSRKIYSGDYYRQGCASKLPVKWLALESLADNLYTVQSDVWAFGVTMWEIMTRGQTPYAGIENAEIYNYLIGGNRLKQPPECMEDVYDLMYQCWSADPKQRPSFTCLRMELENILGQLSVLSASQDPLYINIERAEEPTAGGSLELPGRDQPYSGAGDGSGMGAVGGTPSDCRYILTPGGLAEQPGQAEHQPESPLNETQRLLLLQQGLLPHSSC
In short: as §1

Sequence of Yes(h) (P07947 whole entry): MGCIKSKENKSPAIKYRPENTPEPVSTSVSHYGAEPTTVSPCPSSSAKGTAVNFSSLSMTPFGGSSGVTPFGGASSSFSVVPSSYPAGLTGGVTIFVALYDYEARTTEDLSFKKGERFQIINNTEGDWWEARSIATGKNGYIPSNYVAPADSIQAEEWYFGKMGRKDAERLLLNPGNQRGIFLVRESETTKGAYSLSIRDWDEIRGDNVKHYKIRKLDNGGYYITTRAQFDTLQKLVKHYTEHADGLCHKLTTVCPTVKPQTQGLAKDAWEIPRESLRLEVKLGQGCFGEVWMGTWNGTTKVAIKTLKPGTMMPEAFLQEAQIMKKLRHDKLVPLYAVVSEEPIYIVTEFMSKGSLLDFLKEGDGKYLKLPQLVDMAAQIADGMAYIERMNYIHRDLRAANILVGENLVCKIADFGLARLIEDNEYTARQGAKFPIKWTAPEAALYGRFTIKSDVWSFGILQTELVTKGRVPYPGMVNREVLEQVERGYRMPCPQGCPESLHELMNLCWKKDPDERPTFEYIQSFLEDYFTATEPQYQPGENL
T1 sequence (Q13177 whole entry): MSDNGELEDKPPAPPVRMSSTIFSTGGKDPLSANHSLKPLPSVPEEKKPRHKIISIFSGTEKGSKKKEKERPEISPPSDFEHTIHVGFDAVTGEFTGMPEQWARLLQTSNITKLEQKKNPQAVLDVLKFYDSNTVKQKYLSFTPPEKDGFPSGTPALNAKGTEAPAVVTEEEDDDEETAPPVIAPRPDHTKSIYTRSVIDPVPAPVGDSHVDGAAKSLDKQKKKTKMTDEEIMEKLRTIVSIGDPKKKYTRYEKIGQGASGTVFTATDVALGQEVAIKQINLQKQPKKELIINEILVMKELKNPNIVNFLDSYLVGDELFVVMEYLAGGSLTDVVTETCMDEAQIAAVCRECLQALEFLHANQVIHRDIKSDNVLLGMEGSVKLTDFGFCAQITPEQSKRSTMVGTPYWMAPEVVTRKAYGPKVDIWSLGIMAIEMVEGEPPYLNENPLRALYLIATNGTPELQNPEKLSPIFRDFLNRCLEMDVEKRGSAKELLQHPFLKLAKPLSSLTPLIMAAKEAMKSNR

YARAAARQARAKALNRQLGVA (Mammal) [MMI-0200]
% activity (Yes(h)): 93% | % activity (PAK2(h)): 69% | % activity (Bmx(h)): 76% | % activity (DCAMKL2(h)): 131% | % activity (Rse(h)): 88%

YARAAARQARAKALARQLGVAA [MMI-0100]
% activity (PAK2(h)): 71% | % activity (Bmx(h)): 62% | % activity (DCAMKL2(h)): 146%

HRRIKAWLKKIKALARQLGVAA (Mammal) [MMI-0500]
% activity (PAK2(h)): 44% | % activity (Bmx(h)): 45% | % activity (DCAMKL2(h)): 56% | % activity (Rse(h)): 63%

KAFAKLAARLYRKALARQLGVAA [MMI-0400]
% activity (Yes(h)): 14% | % activity (PAK2(h)): 59% | % activity (Bmx(h)): 26% | % activity (DCAMKL2(h)): 70% | % activity (Rse(h)): 89%

FAKLAARLYRKALARQLGVAA [MMI-0300]
% activity (Yes(h)): 67% | % activity (PAK2(h)): 65% | % activity (DCAMKL2(h)): 81% | % activity (Rse(h)): 88%
